Entries after “also recorded” stand apart in the source; their conditions may differ.
Columns and labels:
[1] = target: T1, RAGE recombinant protein (Human rRAGE) (Homo sapiens, UniProt Q15109); assay: Surface plasmon resonance binding kinetics (Biacore T200), recombinant protein analyte; conditions: analyte RAGE recombinant protein, or RAGE synthetic peptide, not separated
T1 construct: Human rRAGE=Full-length RAGE recombinant protein from Merck; purchased Merck
Description: For on-rate and off-rate screening, Biacore™ T200 system (Cytiva, Uppsala, Sweden) was used to perform SPR analysis with 1×HBS-EP+ buffer (0.01M Hepes, 0.15M NaCl, 0.003M ethylenediaminetetraacetic acid, and 0.05% Surfactant P20, pH 7.4) (BR100669) used as sample and running buffer. The analysis temperature at the sensor chip surface and within the compartment was set to 25° C. Firstly, pH scouting with 10 mM sodium acetate buffer 4.0 (BR-1003-49), 10 mM sodium acetate buffer 4.5 (BR-1003-50), 10 mM sodium acetate buffer 5.0 (BR-1003-51) and 10 mM sodium acetate buffer 5.5 (BR-1003-52) was performed to identify the optimal pH required for ligand (α-RAGE antibodies) immobilization. This was followed by diluting the ligand with the appropriate Acetate buffer to at least 10 μg/mL. The ligand immobilization on the surface Series S Sensor Chip CM5 (29-1496-03, Cytiva) was performed using the Amine Coupling Kit (BR100050, Cytiva) containing 1-Etyhyl-3-(3-dimethylaminopropyl)-carbodiimide hydrochloride (EDC), N-Hydroxysuccinimide (NHS) and 1.0M ethanolamine-HcL PH 8.5 in accordance with the manufacturer's instructions. For each experimental run, the ligand was immobilized in flow cells 2 or 4 while flow cells 1 or 3 were left unmodified. Flow cells 2 and 4 were used as active flow cells while flow cells 1 and 3 were used as reference flow cells. Ligand immobilization levels were typically within the range 500-900 RU for the kinetic experiments and injected with a flow rate of 10 μL/min and contact time of 300 s. Analytes (RAGE recombinant protein and synthetic peptides) were injected for 120 s with a flow rate of 30 μL/min and dissociation time of 600 s run in order of increasing concentration over the reference and active flow cells using a multi-cycle kinetic approach with five-seven concentration range. Following each binding cycle, the surface was regenerated with a 30 s injection of 10 mM Glycine-HcL, pH 2.5 regeneration solution (BR-1003-56), removing the bound antibody with a contact time of 30 s, flow rate of 30 μL/min and a stabilization period of Os. […]

[2] = target: T2, RAGE protein on SKOV3 (Homo sapiens, UniProt Q15109); assay: Immunofluorescent staining of RAGE basal expression on SKOV3 cells; format: cell-based; conditions: primary antibody 4 μg/ml
T2 construct: RAGE protein expressed on the extracellular membrane of cancer cells in its native conformation; endogenous in cells; host or cells: SKOV3 (ECACC)
T2 sequence (Q15109 23-404): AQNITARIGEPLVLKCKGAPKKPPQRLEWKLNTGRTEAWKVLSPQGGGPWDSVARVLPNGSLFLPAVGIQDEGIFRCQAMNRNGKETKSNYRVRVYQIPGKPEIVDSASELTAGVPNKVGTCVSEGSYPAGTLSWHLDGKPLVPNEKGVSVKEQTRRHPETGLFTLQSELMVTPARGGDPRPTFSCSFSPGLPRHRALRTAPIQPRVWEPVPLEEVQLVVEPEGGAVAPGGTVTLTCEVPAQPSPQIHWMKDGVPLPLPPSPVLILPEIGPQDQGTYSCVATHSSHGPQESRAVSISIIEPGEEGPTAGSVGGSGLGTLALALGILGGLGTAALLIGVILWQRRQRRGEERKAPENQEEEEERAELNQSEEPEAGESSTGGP
Description: To screen binding of α-RAGE antibodies by immunofluorescence, 1.5×10^4 SKOV3 cells/well (obtained from the European Collection of Authenticated Cell Cultures, ECACC, Public Health England, UK) were seeded in 8-well chamber slides (Ibidi) in 300 μl of stripped medium and cultured for 48 h in a humidified, 5% CO2 in air atmosphere incubator at 37° C. After culture, cells were fixed with 4% paraformaldehyde (Sigma) for 20 minutes, permeabilized with 0.1% Triton X-100 (Sigma) for 10 minutes at 4° C. and blocked with 3% BSA in PBS for 1 h. Primary antibodies diluted at 4 μg/ml in 3% BSA-PBS were incubated overnight at 4° C., followed by 1 h incubation with Alexa-488 secondary antibody. Cells were washed with PBS extensively between all steps, counterstained before imaging with Hoechst (Life Technologies™) and imaged using a LSM710 confocal fluorescence microscopy system (Zeiss, UK).

[3] = tested on: RAGE; assay: Western blot on protein extracts from ovarian cancer cell lines (OCCL); parameters: species or system human; conditions: whole-cell extracts of SKOV3, OVCAR3, A2780 and cisplatin-resistant lines; antibody 1 μg/mL
RAGE, sequence (Q15109 23-317 limits assumed): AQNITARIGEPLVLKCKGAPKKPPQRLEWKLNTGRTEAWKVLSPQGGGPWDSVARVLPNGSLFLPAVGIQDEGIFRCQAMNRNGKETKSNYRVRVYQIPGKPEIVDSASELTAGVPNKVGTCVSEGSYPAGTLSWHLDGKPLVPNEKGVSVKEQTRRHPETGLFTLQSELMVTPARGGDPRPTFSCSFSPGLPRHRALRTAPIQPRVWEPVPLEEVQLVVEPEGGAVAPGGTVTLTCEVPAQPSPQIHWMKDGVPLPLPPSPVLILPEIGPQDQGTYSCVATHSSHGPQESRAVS
Description: Confluent cultures of cells were lysed in ice cold RIPA buffer (Sigma-Aldrich), whole-cell protein extracts were quantified with DC protein assay, 30 μg/lane were resolved by SDS-PAGE on TGX precast gels, transferred to mini PDVF membranes, blocked 1 h at RT in 5% Bovine Serum Albumin (BSA) in TBST (Tris Buffered Saline, 0.1% Tween-20) and incubated o/n at 4° C. in the same solution with 1 μg/mL of mA9 (sc-365154, Santa Cruz Biotechnology) antibody, mHA9 antibody or hHA9 antibody, or GAPDH (Santa Cruz Biotechnology) as loading control. Membranes were then washed with TBST and incubated 1 h at RT with 0.1 μg/mL of IgG horseradish peroxidase secondary antibody (GE Healthcare) or […] of Goat F(ab′) 2 Anti-Mouse IgG-F(ab′) 2 horseradish peroxidase secondary antibody (Abcam). Target proteins were visualised after incubation with Clarity Western ECL Substrate and imaged using a ChemiDoc System Bio-Rad Imager. Bands were quantified with ImageLab software. Unless stated all the materials specified above were obtained from Bio-Rad Laboratories.

T1 sequence (Q15109 23-404): as the sequence (Q15109 23-404) above

affinity interaction by SPR (summary statement) [1]: weaker affinity
immunofluorescent signal (basal RAGE staining) ([2]; compared with other clones and AB11451, listed as chimeric HA9): most intense immunofluorescent signal
immunofluorescent signal (basal RAGE staining) ([2]; compared with other clones and AB11451, listed as chimeric-HA9): higher intensity
B1: hHA9: chimeric humanised format of anti-RAGE antibody clone HA9 (antibody, V domains shown)
VH: EVKLVETGGGLVQPGRPMKLSCVASGFTLSDHWMNWVRQSPEKGLEWVAQIRNRPYKFEKYYSDSVKGRFTISRDDSKNSVYLQMNNLRAEDMGIYYCSSYRYGLAYWGQGTLVTVST
VL: DNLLTQSPAILSVSPGERVSFSCRASQTIDTRIHWYQQRKNGSPRLLIRYISESLSGIPSRFSGSGSGTEFTLTINSVESEDIADYYCQQTESWPITFGSGTKLEIK
affinity interaction by SPR (summary statement) ([1]; listed as chimeric-HA9): weaker affinity than AB11451 antibody or the commercial antibodies
immunofluorescent signal (basal RAGE staining) ([2]; compared with other clones and AB11451): highest detection of RAGE basal expression
RAGE isoform detected by western blot [3]: able to detect expression levels of full-length transmembrane RAGE; also recorded: detection of high levels of full-length RAGE isoform
